Target: endogenous CK2β (human (endogenous in HeLa)) (UniProt P67870)
Assay: co-IP; lysates (200 ug) of HeLa cells transfected with CK2α-HA or CK2α′-HA; consecutive rounds of immunoprecipitation with anti-CK2β sera and protein A sepharose, or mock control; supernatant and immunoprecipitate blotted for HA and CK2β; NP-40 alternative lysis buffer, 150 mM NaCl, 50 mM Tris pH 7.5

Sequence of CK2α′-HA (P19784 whole entry): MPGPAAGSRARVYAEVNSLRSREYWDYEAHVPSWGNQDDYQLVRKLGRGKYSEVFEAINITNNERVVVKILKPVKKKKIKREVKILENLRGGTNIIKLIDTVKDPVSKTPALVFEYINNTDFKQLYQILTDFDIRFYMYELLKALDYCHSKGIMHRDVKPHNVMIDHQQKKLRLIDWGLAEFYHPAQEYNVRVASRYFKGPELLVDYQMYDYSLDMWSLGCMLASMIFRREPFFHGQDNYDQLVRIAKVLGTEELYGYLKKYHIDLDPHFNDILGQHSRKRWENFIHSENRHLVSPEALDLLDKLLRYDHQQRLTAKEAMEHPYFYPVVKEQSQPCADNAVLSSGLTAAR
Sequence of UniProt P67870 (P67870 whole entry): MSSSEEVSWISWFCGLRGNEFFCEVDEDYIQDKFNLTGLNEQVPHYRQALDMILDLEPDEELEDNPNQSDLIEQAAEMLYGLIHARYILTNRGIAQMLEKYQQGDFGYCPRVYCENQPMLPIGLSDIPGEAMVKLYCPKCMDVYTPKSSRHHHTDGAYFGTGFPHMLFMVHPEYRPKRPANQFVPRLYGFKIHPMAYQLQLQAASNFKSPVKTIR

Q: “CK2α′-HA (from UniProt P19784 1-350) (enzyme)” was tested. Which percent depleted from the lysate by CK2β immunoprecipitation did it give?
A: The percent depleted from the lysate by CK2β immunoprecipitation was greater than 90%.
